test: soluble on expression in E. coli; label from the status in PepcDB or PDB records

Row | Sequence | soluble on expression in E. coli
1 | MGSDKIHHHHHHVRFIMKTNLFTSLLKKCIYGLSWFFPRQGNKAVFGCYKNLFADNSKYLYLHWHKNKFMHVIWISGDASLVNALRKKGFIAYERWSLEGVYHALTARFYIYNSYIGDVNQWFASGSIKINLWHGSPLKRIEFDIDHGPLAHKYQSNSYWQKTWHSLLYHQEYVRPQLMLSPSPLVDRLFCSAFRLQKKQLLSCGNPRTDFYRRYPDKCQSINSKPDGTSYKKVILYAPSWRDANLSNTETVQSPYEKAFNWGVLSQFLVNSDCLFLLRLHPNERHYAKHFSAYPNVRDISSWEDVYGILHQVDLLLTDYSSLFIDVLPLNIPIVFYLFDHESYIKNSRNCYEYSQCLPQAGLIAYGFEELINILKNNTSKKQTETLHLAYTQLQKLYWQEMNEHSDCFELLERYICRRNLLKSPLNTQIS | not soluble
2 | GSMKPYKELERVFTKLYRYGHMLLLADWDSHTMMPCKGSDARGAAMAELQLHMHDTITAPKIRALIEEAEKSVGDLEKLQRANLREMRRAWELENLLPEEFVERKTVLTTKAHQVWKTCREKNDFAGFLPTLKELIALFREEGKLRAGNSGKHPYEALVDIYEPGMTLQRLDEIFGNVRSWLPELLKEVQEKQKALGETVLEPKGPFPVSKQEALCRFFMDVWKFDFDGGRLDVSAHPFCGNSKEDVRITTKYTETEFVTSLLGVIHETGHAKYEQNCGPKGFETQPVCMARSLGVHEGQSLFAEMQIGRSGAFMEFLAPRLVEYFGDQPAFTSSNMKRVIQRVSPGLIRIDADELCYPLHVMLRYEIERDLMDGNIEAEEVPRVWNEKMKSYLGLETLGNDKEGCLQDVHWSGGMFGYFPTYSLGAMVAAQLMSCVRRELGEEVVDDCIRKGDLGKILAKQNEKIWQHGSSLTTDELLRQATGETLNPEHYRRHLERRYRDDRG | soluble
3 | MEINENPTSFKGFKILQLSDLHNKSFGNNNNRLVKKIIGENPDIIVMTGDMVNAKDNDFEVFINLAEQISKSFDVYYIVGNHEQDLNEDKRKILMDKLSEIGIRVLDNEKVTISRGAESINLYGLWFNLRYYKDLKNEYTKDVFFGTKQIQSILGDLDTDSYNILLTHNPLYADTYSNWGADLTLSGHIHGGMIRIPFVGGLLSPEREFFPEYDAGKYQVNGKILIVNRGLGNGDFGIRVFNPPEISVIMLSNLEHHHHHH | not soluble
4 | MGSDKIHHHHHHMERQARIIAFYATNENVGKSTLSIAMANELAHLGKKVLYVEADQVRPSFAVGTGLSHDSKNILELVRKENEYNLSQYICTKQDLLERKMNPRLMQKLHDKMDFLVFPSGYNLAQFPEIQNKELFVTTFIESLVDTEYDSIILSVPTELSEVLSYPILYQSDLVIHVLNGNPRGAIAIKRELQLLEEAKLTLPRMIHVLNMADEDYVEDIEKLSSQKIAVTIPYDRDRTSYEWGMQFGSPQINTKVHHIMEAAGLDIPTQHTSSMKKGLFGLRN | not soluble
5 | MAHHHHHHMAKKHLKRLYAPKDWMLSKLTGVFAPRPRAGPHKLRECLSLLIIIRNRLKYALNALEAQMILRQGLVCVDGKPRKDGKYPAGFMDVVEIPKTGDRFRILYDVKGRFALVRVSEAESSIKMMKVVNVYTGTGRIPVAVTHDGHRIRYPDPRTSRGDTLVYDVKEKKVLDLIKIGNGKVVMVTGGANRGRIGEIVSIERHPGAFDIARLKDASGHEFATRATNIFVIGKDMSSVPVTLPKQQGLRINVIQEREEKLIAAETRRTTQAHSKRKTKV | not soluble
6 | MGSDKIHHHHHHSDEEDGGSGGNLIYGGVSVSQEVLAHKPMLEKYAREYGIEEYLNVLLAIIQVESGGTLEDVMQSSESLGLPPNSLSTEESIKQGCKYFSELLAAAETKGCDLNSVIQSYNYGGGFLDYVAGHGKKYTFELAESFARDKSGGKKVTYTNPVAVEKNGGWRYSYGNMFYVLLVSQYLTVAQFDDETVQAIMEEALKYEGWTYVYGGDSPSTSFDCSGLVQWCYGKAGIALPRTAQEQYNVTQHIPLSEAKAGDLVFFHSTYNAGTYITHVGLYVGNNRMYHAGNPIGYADLTGSYWQQHLAGAGRIKQ | not soluble
7 | TSKFQWTSDFNIGFNRNRVTELYGGKPELKGLKRLEEGRDMDEWYLREWAGVDPANGSPLWYTTDENGKRTTTDSYNKADRVYCGSAAPKFTGGWMNSFSYKGFTLTANFDFVYGNLLYNQSRELLDSDGAYADYNSMKLKSGWKRWEKEGDIATHPKAINGGNKNSNKSSSRYLEKGNYFSLRNLSLGYSIPEKLCGKLGLQRVNVSCSADNLFTLTPFSGVSPQLSDSSTDGYAGTIYPLSRRIVFGLNVSF | not soluble
8 | SLYQVVLGKVSTLSAGQLPDALIAQAPQGVRRASWLAGRVLLSRALSPLPEMVYGEQGKPAFSAGAPLWFNLSHSGDTIALLLSDEGEVGCDIEVIRPRDNWRSLANAVFSLGEHAEMEAERPEQQLAAFWRIWTRKEAIVKQRGGSAWQIVSVDSTLPSALSVSQCQLDTLSLAVCTPTPFTLTPQTITKAL | not soluble
9 | MGSDKIHHHHHHMTKARDDRYNFGFLDENTKRMLRRSLLKAVAIPGYQVPFGSREMPLPYGWGTGGIQLTASVIGRDDVLKVIDQGADDTTNAVNIRRFFGRVAGVATTTRTADATLIQTRHRIPETPLKPGQILIFQVPEPEPLRTLEASEVETRKLHAHQEYGLMHVKLYEDIARFGHIATSYDYPVMVNDRYLASPSPIPKFDNPKLDMNPALLLFGAGREKRLYAIPPYTKVESLAFDDHPFEIQSWQQGCAICGSHDSYLDEIVIDDAGSRMFVCSDTDYCQREKQA | not soluble
10 | SGDKPPGFRGSRDWIGCVEASLCLAHFGGPQGRLCHVPRGVGLHGEVERLYSHFAGGGGPVMVGGDADARSKALLGVCVGSGTEAYVLVLDPHYWGTPKSPSELQAAGWVGWQEVSAAFDPNSFYNLCLTSLSSQQQQRTLD | soluble
11 | MLIYHNCTTDRTMRKMRHEWGTFGIRIADAFSTMNIDVFDKGEKYNGNEKVELTTTVKNYKPKNNTRKWPAVEAKYLGVVYDNHNKLPKNCEGQKVEVQMMKIDKEQYGWVITDILNE | not soluble
12 | MSLSDPVKVFLADNLRRYDAAVLVMSLPGFYRISADLMIEKNHDVPVVVVDDAGRFAVAASAGHAGGSDELAAYIAGIIDGQAVITDGIESGGRVSVEKIARSLLATIANPECIIPVNAAIANGEHVPVIFRSKKRSMLRRLFAESSDEKHGYAIVLADEPGEDANTCYLIPDDISIGIGFNSSADAELISACLERFLEEAGLAWEDIDYVSSIKDLPDVSIIRKGTRFVKFDPADIRDIDPEMLTHVSDKARDVFGVPGVAEPCAIRSLGPGSKIFLPFRSCGRSVTLAAARREGHHHHHH | soluble
13 | MGSDKIHHHHHHMGILVVGSVAFDSVETPFGRVENVLGGSATYFSTSASFFTDVSLVAVVGEDFPQEHVEFLNSRNIDLRGLAREGGKTFHWKGKYGYDLNEAQTLETHLNVFESFRPQIPAAYRDAEFLFLANIDPELQMEVLSQVEKPRVIACDTMNFWISSKPEALKAVIAKVDIFIINEGEARQFTQEANLTKAARKILAMGVKTLVIKRGEYGVLMFTDHSVFAAPAFPLEDVFDPTGAGDTFAGGFMGYLANTGDTSETGIRQAIIFGSVMASFNVEDFSLNRLKRLEYREIEDRYRSFKALTHFEGLAGG | not soluble
14 | MQKDALNNVRITDEQVLMTPEQLKAAFPLSLAQEAQIAQSRGIISDIIAGRDPRLLVVCGPCSIHDPETALEYARRFKALAAEVSDSLYLVMRVYFEKPRTTVGWKGLINDPHMDGSFDVEAGLKIARQLLVELVNMGLPLATEALDPNSPQYLGDLFSWSAIGARTTESQTHREMASGLSMPVGFKNGTDGSLATAINAMRAAAQPHRFVGINQAGQVALLQTQGNPHGHVILRGGKAPNYSPADVAQCEKEMEQAGLRPSLMVDCSHGNSNKDYRRQPAVAESVVAQIKDGNRSIIGLMIESNIHEGNQSSEQPRSEMKYGVSVTDACISWEMTDALLREIHKDLSGQLAVRVA | not soluble
15 | MGSDKIHHHHHHMISASTLNSELINKIAQDFAQATSLAVVVVNIHGDEISELFNFTPFCQLMRQHPEHSGRCRMSDRCGGLEASKKDQLCIYRCHAGLTDFSIPLVIAGHLVGFVLCGQVRLSNDVELVDILNVDDRWQDDPALVQAFRDVPEMDYSRVIASADLLKLIVENCLKKQLNFVVIKDNPSQNDPAQASRAPSPHDGKMKKALRYIDAHLSDELRLEDVAAHVYLSPYYFSKLFKKYQGIGFNAWVNQQRMASAKELLCHSDWSIASIARNLGFSQTSYFCKVFRQTYQVTPQAFRQQINAGSQTESF | not soluble
16 | AAQPADIVLTQTPSSLPVSVGEKVTMTCKSSQTLLYSNNQKNYLAWYQQKPGQSPKLLISWAFTRKSGVPDRFTGSGSGTDFTLTIGSVKAEDLAVYYCQQYSNYPWTFGGGTRLEIKRGGGGSGGGGSGGGGSGGGGSEVQLQQSGPEVVKTGASVKISCKASGYSFTGYFINWVKKNSGKSPEWIGHISSSYATSTYNQKFKNKAAFTVDTSSSTAFMQLNSLTSEDSAVYYCVRSGNYEEYAMDYWGQGTSVTVSS | soluble
17 | MASKKASGTLPPQQQVVHKVIMVGTGGVGKSALTLQFMYDEFVEEYEPTKADSYRKKVVLDGEECSIDILDTAGQEDYSAIRDNYYRSGEGFICVFSILDMESFEATNEFREQILRVKNSDSSVPIVLVGNKGDMRDQRVVSAELCRQRAEQWGCHYVETSAKRRENVDKVFYDLMREMKRRKGGSQAQTGIDASASSGRKKRSGIKKHCTIL | not soluble
18 | MKHHHHHHGKAAGVTLGEVWKRQLNMLGKQEFERYKVSDITEVDRTAARRYLKEGRTDVGISVSRGAAKIRWLHERGYLRITGRVLDLGCGRGGWSYYAAAQKEVMSVKGYTLGIEGHEKPIHMQTLGWNIVKFKDKSNVFTMPTEPSDTLLCDIGESSSNPLVERDRTMKVLENFERWKHVNTENFCVKVLAPYHPDVIEKLERLQLRFGGGIVRVPFSRNSTHEMYYISGARNNITHMVNTTSRSLLRRMTRPSGKAIIEGDVFLPTGTRSVASEAGTIDHEALKLRVDQIKAEYSKT | soluble
19 | MSLNKIKRITAYKIDLPLKEGSYNWSEGKSVSVFDSTVIAVETENGTIGYGECCPLGPFYLPSYAEGVRAGIKELGPHLIGLDATNLFYLNHIMDRSLKGHPYVKSPIDVACWDIKGKTAGLPVSNLLGGVYDEDFILYRAISQDQPEAMADKVKEYRDQGYRRFQLKVGGNADEDIKRIRSVAEKMETGDKLIADANTGWLTHEAVRVVNGVSDIDVYIEQPCLSYDECFAVRKKTNHPFILDESINNMRTLLKAYHDQAMDAVNIKISKFGGITKAALARDICSELGIAMTIEDTWGGDIVTAAIAHLAHTTDPKLLFTATDFNSYVTVDIASGAPKRENGRMKSSKDPGLGIKPLSEVLGDSVVDIEGHHHHHH | not soluble
20 | MESRYVLTGRYDSAPATDGSGTALGWTVAWKNNYRNAHSATTWSGQYVGGAEARINTQWLLTSGTTEANAWKSTLVGHDTFTKVKPSAASGGGSAEAGITGTWYNQLGSTFIVTAGADGALTGTYESA | soluble
21 | MGSDKIHHHHHHMDSSCSPKHGWFDSVAESYAQQRPYYPESLFTWISSKAASHQRCWDVACGSGQASLGLARHFDRVDASDLSPAQVAAAPAHSNIHYQVAAAEDSGFPNACMDAIVVAAAIHWLDVPRFNEEALKVARPGGLMVWVGYDPPQGAPPALQLWLDQLYSERLSSWWPPQRHHVDNHYQNLPFPTISKTLPQELCISLKWSCEQLIGYIGTWSALRKATQEGHDLLPQLSMELQRLWPADQKTIPLIFPLMGRWGYLAR | not soluble

— the DeepSol protein solubility set
